B1: peptide HD2 (from tick evasin EVA4) / CXCL14 (biotinylated, synthetic) (parent)
chain 1: EEDDYTAYAPLTCYFT
chain 2: SKCKCSRKGPKIRYSDVKKLEMKPKYPHCEEKMVIITTKSVSRYRGQEHCLHPKLQSTKRFIKWYNAWNEKRRVYEE
B2: peptide HD2 (from tick evasin EVA4) / CXCL11 (biotinylated, synthetic) (parent)
chain 1: EEDDYTAYAPLTCYFT
chain 2: FPMFKRGRCLCIGPGVKAVKVADIEKASIMYPSNNCDKIEVIITLKENKGQRCLNPKSKQARLIIKKVERKNF

Variants of: B1
Settings: with CXCL14 (biotinylated, synthetic); scale: log2

enrichment of substitutions, site by site:
chain 1 Y14: N -5.16 | P -7.11 | S -7.93 | R -8.35 | K -6.43 | T -7.2 | G -8.76 | F -6.35 | M -7.23
chain 1 F15: P -5.62 | K -5.27 | E -7.19 | T -5.59 | D -6.86
chain 1 C13: H -6.91 | F -6.89 | R -8.81 | L -9.57 | M -7.78 | K -7.38 | I -6.44 | Y -7.01 | Q -7.64
chain 1 Y8: K -4.33 | T -6.74 | H -5.83 | C -7.94 | Q -4.62 | S -8.01 | G -6.97 | E -4.45 | A -7.04 | R -6.45
chain 1 E1: N -6.84 | A -5.59 | M -5.07 | P -5.8 | K -4.33 | R -6.24 | H -6.24 | G -5.5 | C -8.01
chain 1 Y5: E -1.74 | G -5.37 | K -3.86 | A -5.33 | R -5.31 | N -5.97 | V -7.53 | T -5.93 | S -7.36 | D -5.31 | P -4.99 | Q -3.62
chain 1 A7: C -8.1
chain 1 P10: C -7.98 | R -7.34 | T -6.13 | N -6.28 | K -5.23 | Y -6.83 | I -6.7
chain 1 A9: C -8.35 | R -6.78 | P -6.07
chain 1 E2: A -5.18 | C -8.27 | P -5.31 | K -3.41 | Q -3.16 | H -5.9 | R -5.39
chain 1 L11: G -8.51 | E -6.43 | K -5.25 | P -6.36
chain 1 D4: R -5.35 | H -6.03 | Q -4.74 | L -9.04 | T -6.14 | K -5.14 | C -7.5 | V -8.11 | G -4.48 | A -6.34

Variants of: B2
Settings: with CXCL11 (biotinylated, synthetic); scale: log2

enrichment: each site, then its substitutions
chain 1 E1: C -6.89 | R -5.11 | K -3.21
chain 1 D3: P -4.65 | Q -2.12 | A -4.17 | E -1.84 | M -4.98 | H -4.1 | V -6.48 | C -7.03 | K -2.5 | R -4.59
chain 1 E2: C -7.15 | P -4.19 | Q -2.04 | R -4.27
chain 1 L11: E -5.3 | G -7.39 | Q -3.39 | N -5.58
chain 1 F15: N -3.87
chain 1 A7: C -6.98
chain 1 P10: K -4.1 | Y -5.7 | Q -3.53 | R -6.22 | F -6.55 | C -6.86
chain 1 Y5: V -6.41 | K -2.74 | Q -2.5 | T -4.8 | D -4.19 | C -6.3 | G -4.25 | P -3.87 | A -4.21 | M -4.78 | S -6.24 | E -0.621 | R -4.19
chain 1 Y8: K -3.21 | R -5.32 | Q -3.5 | E -3.32 | C -6.82 | P -5
chain 1 T12: G -7.44 | K -4.72
chain 1 T16: H -4.21 | R -6.32
chain 1 C13: K -6.26 | W -6.78 | G -7.57 | Y -5.88 | R -7.69 | I -5.31 | D -6.29
chain 1 A9: K -3.76 | D -5.37 | C -7.23
chain 1 D4: N -5.1 | G -3.36 | C -6.38 | K -4.01 | H -4.91 | R -4.23 | T -5.01 | E -3.08 | A -5.22
chain 1 Y14: K -5.3 | Q -5.19 | S -6.81 | N -4.04 | D -4.67 | R -7.23 | M -6.11 | I -4.41 | P -5.99 | E -5.9

— publication PMC11969024, “Development of chemokine network inhibitors using combinatorial saturation mutagenesis” (Communications Biology, 2025)
